Test: yeast display, Sf9 membrane polyspecificity reagent, FACS + sequencing; frameworks hold sequencing errors
Outline: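 Nanobodies from a synthetic yeast display library (Saccharomyces cerevisiae BJ5465), induced 36–48 hours with galactose, were stained 1 hour at 4 °C with 10% biotinylated, detergent-solubilized Sf9 membrane reagent, enriched on streptavidin microbeads, then FACS-sorted. Anti-HA (expression) and streptavidin (reagent binding) fluorescence set low and high (top ~1%) gates. Polyreactivity labels come from the gate of origin. Genes were colony-PCR amplified, MiSeq 2 × 250 sequenced and filtered by CDR length.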

| Sequence | polyreactivity (PSR sort gate) |
| --- | --- |
| QVQLVESGGGLVQAGGSLRLSCAASGRTFDYYVMGWYRQAPGKERELVAAITSGGSTYYADSVKGRFTISRDNAKNTVYLQMNSMKPEDTAVYYCNNVRGAFYSHLFDYWGQGTQVTVSS | high polyreactivity |
| QVQLVESGGGLVQAGGSLRLSCAASGRTFEGNAMGWSRQAPGKERELVAAISTSGGRTYYADSVKGRFTISRDNAKKSVYLQMNSLKPEDTAVYYCATSFYVYPTYYILDYWGQGTQVTVSS | low polyreactivity |
| QVQLVESGGGLVQAGGSLRLSCAASGRTFEGNAMGWYRQAPGKESELVAAITSGGRTNYADSVKGRFTISRDNAKNTVYLQMNCLKPEDPAVYYCAVETRDRSNYFPGQAYDYWGQGTQVTVSS | low polyreactivity |
| QVQLVESGGGLVQAGGSLRLSCAASGRTFENYAMGWYRQAPGKERELVAAISKSGGSTYYADSVKGRFTISRDNAKNTVYLQMNSLKPEDTAVYYCATRLTSAVGRYLYDFGYWGQGTQVTVSS | high polyreactivity |
| QVQLVESGGGLVQAGGSLRLSCAASGRTFERNAMGWYRQAPGKEREFVAAITEIGGSTYYADSVKGRFTISRDNAKNTVYLQMNSLKPEDTAVYYCAKDGTYSPYDYWGQGTQVTVSS | low polyreactivity |
| QVQLVESGGGLVQAGGSLRLSCAASGRTFERNAMGWYRQAPGKERELVAAITWSGVSTYYADSVKGRFTISRDNAKNTVYLQMNSLKPEDTAVYYCAADWDWRFHRMNYWGQGTQVTVSS | low polyreactivity |
| QVQLVESGGGLVQAGGSLRLSCAASGRTFERNTMRWYRQAPGKERELVAAISYDGGSTYYADSVKGRFTISRDNAKNTVYFQLNSLKPEDRAVYYCNAGGSEIYRSPFDYWGQGTQVTVSS | low polyreactivity |
| QVQLVESGGGLVQAGGSLRLSCAASGRTFEYYAMGWYRQAPGKERELVAGISWSGGSTYYADSVKGRFTISRDNAKNTVYLQMNSLKPEDTAVYYCNARYLPRSTIYDYWGQGTQVTVSS | high polyreactivity |
| QVQLVESGGGLVQAGGSLRLSCAASGRTFFDHALGWYRPAPGKERELVAAITSVGSTYYADSVKGRFTISRDNAKNTVYLQMNSLKPEDTAVYYCAAHRHIHYTDARMDYWGQGTQVTVSS | low polyreactivity |
| QVQLVESGGGLVQAGGSLRLSCAASGRTFFDYTMGWYRQAPGNERELDAAITGGDGSTYYADSVKGRFTISRDNAKNTVYLEMTSLKPEDTAVYYCAAEYTRTYWYAAMDYWGQGTQVTVSS | low polyreactivity |
| QVQLVESGGGLVQAGGSLRLSCAASGRTFFFNAMGWYRQAPGKERELVARISSSGRTNYADSVKGRFTISRDNAKNTVYLQMNSLKPEDTAVYYCAAGRYGLYKSDRSPEYGYWGQGTQVTVSS | high polyreactivity |
| QVQLVESGGGLVQAGGSLRLSCAASGRTFFFYAMGWYRQAPGKERELVADITWSDGTTYYAESVKGRFTISRDNAKNTVYLQMNSLKPEDTAVYYCAKVRTGQSRSVGYDYWGQGTQVTVSS | low polyreactivity |
| QVQLVESGGGLVQAGGSLRLSCAASGRTFFGYAMGWYRQAPGKERELVAAISSGGSTYYADSVKGRFTISRDNAKNTVYLQMNSLKPEDTAVYYCAARSFTTRRSVIRNYWGQGTQVTVSS | high polyreactivity |
| QVQLVESGGGLVQAGGSLRLSCAASGRTFFGYARGWYRQAPGKEREFVARISWRGTSTTYADSVKGRFTISRDNAKNTVYLEMNSLKPEDTAVYYCAASPYGLRVYFTVGYWGQGTQVTVSS | high polyreactivity |
| QVQLVESGGGLVQAGGSLRLSCAASGRTFFKNAMGWYRQAPGKERELVAAITSSGGTTYYADSVKGRFTISRDNAKNTVYLQMISLKPEDTAVYYCATRKYPIRYGYGYWGQGTQVTVSS | high polyreactivity |
| QVQLVESGGGLVQAGGSLRLSCAASGRTFFKYAMGGYRQAPGKERELVAAITGRGDRTYYADSVKGRFTISRDNAKNTVYLQMNSLKPEDTAVYYCAAGAPAHHASFYYWGQGTQVTVSS | high polyreactivity |
| QVQLVESGGGLVQAGGSLRLSCAASGRTFFKYAMGWYRQAPGKERELVAAITWGGDRTFYADSVKGRFTISRDNAKNTVYLQMNSMKADETAVYYCAAEVLPNVYVYQSARGFYYWGQGTQVTVSS | high polyreactivity |
| QVQLVESGGGLVQAGGSLRLSCAASGRTFFPYAMGWYRPAPGKEREFVAAITKTDDSTYYADSVKGRFTISRDNAKNTVYLQMNSLKPEDTAVYYCNAGDTQIRFYYWGQGTQVTVSS | low polyreactivity |
| QVQLVESGGGLVQAGGSLRLSCAASGRTFFPYAMGWYRQAAGKERELVDAISLDDDTTYYADSVKGRFTISRDTAQNTVYLQMNSLKPEDTAVYYCATDGIVIYGGYYTGYDYWGQGTQVTVSS | high polyreactivity |
| QVQLVESGGGLVQAGGSLRLSCAASGRTFFPYVMGWYRQAPGKERELVATITWGGVSTYYADSVKGRFTISRDNAKNTVYLQMNSLKPEDTAVYYCAARYYRWRTIPEYYYWGQGTQVTVSS | high polyreactivity |
| QVQLVESGGGLVQAGGSLRLSCAASGRTFFRYAMGWYRQAPGKERELVAAISSRGGSTYYADSVKGRFTISRDNAKNTVYLQMNSLKPEDTAVYYCNADAFINFILYDYWGQGTQVTVSS | high polyreactivity |
| QVQLVESGGGLVQAGGSLRLSCAASGRTFFTNAMGWSRQAPGKERELVATISQSGGSTYYADSVKGRFTISRDNAKNTVYLQMNCLKPEDTAVYYCAALSRYWVVRMDYWGQGTHVTVSS | high polyreactivity |

| Sequence | polyreactivity (PSR sort gate) |
| --- | --- |
| QVQLVESGGGLVQAGGSLRLSCAASGRTFFTYAMGWYRQAPGKERELVAAITWSGGSTYYADSVKGRFTISRDNAKNTVYLQMNSLKPEDTAVYYCAADGSVAYYSAFGSVQIWYYYWGQGTQVTVSS | low polyreactivity |
| QVQLVESGGGLVQAGGSLRLSCAASGRTFFVYAMGWYRQAPVKERELVAAISNTGGRTYYADSVKGRFTISRDNAKNTVYLQMNSLKPEDTAVYYCAAPYSGPYRSYEYYWGQGTQVTVSS | low polyreactivity |
| QVQLVESGGGLVQAGGSLRLSCAASGRTFFVYTMGWYRQAPGKERELVAAITSDTSTTYADSVKGRFTISRDNAKNTVYLQMNSLKPEDTAVYYCAAEGYVGYYDYDYWGQGTQVTVSS | low polyreactivity |
| QVQLVESGGGLVQAGGSLRLSCAASGRTFFWNAMGWYRQAPGKERELVATISRSGGSTYYADSVKGRFTISRDNAKNTVYLQMNSLKPEDTAVYYCAAQYVRRSRKYDYWGQGTQVTVSS | high polyreactivity |
| QVQLVESGGGLVQAGGSLRLSCAASGRTFFWYAMGWYRQAPGKERELVADISSSGGSTYYADSVKGRFTISRDNAKNTVYLQMNSLKPEDTAVYYCAALSPWWRGGYNYWGQGTQVTVSS | high polyreactivity |
| QVQLVESGGGLVQAGGSLRLSCAASGRTFFYNAMGWYRQAPGKERELVARITQSGVITYYADSVKGRFTISRDNAKNTVYLQMNSLKPEDTAVYYCNADDTYSPFRGVSYDYWGQGTQVTVSS | low polyreactivity |
| QVQLVESGGGLVQAGGSLRLSCAASGRTFFYYAMGWYRQAPGKDRELVAAISWGGGRTYYADSVKGRFTISRDNAKNTVYLQMNSLKPEETAVYYCAAGVYTGQHEYDYWGQGTQVTVSS | low polyreactivity |
| QVQLVESGGGLVQAGGSLRLSCAASGRTFFYYAMGWYRQAPGKERELVAGITSTGSSTYYADSVKGRFTISRDNAKNTLYLQMNSLKPEDTAVYYCAADRYTTYSGQWSYPYDYWGQGTQVTVSS | low polyreactivity |
| QVQLVESGGGLVQAGGSLRLSCAASGRTFFYYKMGLSRQAPGKESELVATISWRGGSTYYADSVKGRFTISRDNAKNTVYLHINSLNPEDTSVFYCAARYRSRFDSWGQGSQVTVSS | high polyreactivity |
| QVQLVESGGGLVQAGGSLRLSCAASGRTFGENTMGWYRQAPGKERELVASITWSGDSTFYADSVKGRFTISRDNAKNTVYLQMNSLKPEDTAVYYCARDDYYGSYGYDYWGQGTQVTVSS | low polyreactivity |
| QVQLVESGGGLVQAGGSLRLSCAASGRTFGFNVMGWYRQAPGKEREFVAAITRSGGSTYYADSVKGRFTISRDNAKNTVYLQMNSLKPEDTAVYYCAAYKFSARYYYWGQGTQVTVSS | high polyreactivity |
| QVQLVESGGGLVQAGGSLRLSCAASGRTFGFYAMGWYRQAPGKERELVATITYRGSGGSTYYADSVKGRFTISRDNAKNTVYLQMNSLKPEDTAVYYCAADKRYSRYFSFDYWGQGTQVTVSS | high polyreactivity |
| QVQLVESGGGLVQAGGSLRLSCAASGRTFGGNAMGWYRQAPGKERELVAAISSGGSTNYADSVKGRFTISRDYAKNTVYLQMNSLKPEDSAVYYCAAGWYWWARYDYWGQGTQVTVSS | low polyreactivity |
| QVQLVESGGGLVQAGGSLRLSCAASGRTFGGNAMGWYRQAPGKERELVAAITVSAGHTYYADSVKGRFTISRDNAKNTVYLQMNSLKPEDTAVYYCAAGVPYYWSYVWKHPRYDHWGQGTQVTVSS | low polyreactivity |
| QVQLVESGGGLVQAGGSLRLSCAASGRTFGGNVMAWYRHAPGKERELVAAITWSGGSTYYADSVKGRFTISRDNAKNTVYVQMNSLKPEDTAVYYCNALWVWYRGSSVRWVGGYDYWGQGTQVTVSS | high polyreactivity |
| QVQLVESGGGLVQAGGSLRLSCAASGRTFGGYAMGWYRQAPGKERELVAAINYSGGTTYYADSVKGRFTISRDNAKNTVYLQMNSLKPEDTAVYYCAASDCYGLFYGGPTWWKGHDYWGQGTQVTVSS | high polyreactivity |
| QVQLVESGGGLVQAGGSLRLSCAASGRTFGGYAMGWYRQAPGKERELVATISYSSGSTYYADSVKGRFTISRDNAKNTVYLQLNSLKTEDTAVYYCAAEYRSRSWRMDYWGQGTQVTVSS | high polyreactivity |
| QVQLVESGGGLVQAGGSLRLSCAASGRTFGGYTIGWSRQAPGKERELVAAIRWSGGRTYYADSVKGRFTISRDNAKNTVYLQMNSLKPEDTAVYYCNARYVFPYYWGQGTQVTVSS | high polyreactivity |
| QVQLVESGGGLVQAGGSLRLSCAASGRTFGHYAMGWYRQAPGKERELVAAITWTGGRTYYADSVKGRFTISRDNAKNTVYLQMNSLNPEVTAVYYCNTDRSFYYPAEYDYDYWGQGTQVTVSS | low polyreactivity |
| QVQLVESGGGLVQAGGSLRLSCAASGRTFGHYAMGWYRQAPGKERELVATITGGGTTNYADSVKGRFTISRDNAKNTVYLQMNRLKPEDTAVYYCNAAWRYYWLGLRRNGYWGQGTQVTVSS | high polyreactivity |
| QVQLVESGGGLVQAGGSLRLSCAASGRTFGIKAMGWYRQAPGKERELVATITTGTSTNYAVSVKGRFTISRDNAKNTVYLQMNSLKPEDTAVYYCAARDWYGWEFDYWGQGTQVTVSA | low polyreactivity |

Reference: the nanobody polyreactivity screen of Harvey et al. (2022)
